Reference: publication PMC6545883

Test system: NC(=O)c1ccc[n+]([C@@H]2O[C@H](COP(=O)(O)OP(=O)(O)OC[C@H]3O[C@@H](n4cnc5c(N)ncnc54)[C@H](OP(=O)(O)O)[C@@H]3O)[C@@H](O)[C@H]2O)c1
Assay: purified protein
Conditions: varied: cofactor

## PtmO8 (Streptomyces platensis)
  Km: (1.11 ± 0.11) × 10^3 µM
  Vmax: 3.7 µM/min
  kcat: 110 s⁻¹
  kcat/Km: 100000 M⁻¹ s⁻¹
